These results are taken from patent US20090215639A1.

The target in this test is human full length IgG1 (Calbiochem) (human). The test is described as follows: BIAcore SPR, IgG1 immobilized, soluble receptor injected. A general note: In SPR one partner is held on a chip, and binding of the other changes the refractive index at the surface.

On to FcγRIIIa V158 (receptor), for which the koff stood at 0.0139 s⁻¹.

FcγRIIIa F158 (receptor): the fold faster koff against FcγRIIIaV158 was found to be 6 fold and the koff stood at 0.0858 s⁻¹.

Broadly, the koff is the rate constant with which the complex falls apart. Low values mean slow dissociation, high ones fast dissociation.
